Assay results as given in patent publication US20260234236A1 (INTERVET, published 2026).

Molecular target: T1, Canine IL-4 with C-terminal Avi-HIS tag (canine, biotin label when loaded on SA biosensors (Example 4); site not stated)
T1 construct: also called cIL-4; biotinylated avitag-cIL-4
T1 chain: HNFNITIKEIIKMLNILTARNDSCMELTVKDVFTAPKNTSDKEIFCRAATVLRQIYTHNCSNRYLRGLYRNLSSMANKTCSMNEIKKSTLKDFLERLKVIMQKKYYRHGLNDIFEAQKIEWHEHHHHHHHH
Test: BLI (OCTET HTX); biotin-cIL-4 on SA biosensors, scFv in solution; 1:1 model
Protocol: (§1) The in vitro binding of anti-canine IL-4 scFv and IL-13 scFv to canine IL-4 and canine IL-13, respectively, was determined by OCTET HTX using SA biosensors and Data Acquisition 12.0 software. First, biotin-labeled antigen (cIL-4 or cIL-13) was loaded onto the pre-rehydrated SA biosensors for 60 seconds (60s) at a concentration of 5 μg/mL. Second, the biosensors were placed into the OCTET Kinetics Buffer (PBS+0.02% Tween20, 0.1% BSA) for the blocking phase for 120s. Third, for the association phase, cIL-4 or cIL-13 antigen loaded biosensors were placed into 2-fold serial dilutions from 500 nM down to 7.8 nM of anti-cIL-4 or anti-cIL-13 scFvs, respectively, in OCTET Kinetics Buffer for 60s. The last well was buffer alone and that sensor was used for reference sensor subtraction. Finally, the biosensors were placed into OCTET Kinetics Buffer for the dissociation phase for 300s. The analysis was performed using Data Analysis 12.0 software and curves were fitted using a 1:1 binding model.

Binder	Kd [nM]	koff [s⁻¹]	kon [M⁻¹ s⁻¹]
IL4 P3-1 B9 scFv (scFv, scFv purified from E. coli periplasm on Ni-NTA) scFv: QAVLTQPASVSAALGQRVTISCTGTATNVGGGYDVQWYQQFPGRPPKTIIYGNYNRPSGVPDRFSASTSGTTATLTITGIQVADEADYYCQSFDTTFNGHVFGAGTQLTILGGGSSRSSSSGGGGSGGGGELQLVELGGDLVKPGGSLRLSCVASGFTFSSYGMSWVRQSPGKGLQWVADISSSGSTYYADAVKGRFTISRDNAKSTLYLQMNSLRAEDTAVYYCAKAGYGSYYDFGMDYWGHGTSVFVSSESPSPPNLTSGQAGQ	4.5	0.00108	241000
IL4 P4A-1 F10 scFv (scFv, scFv purified from E. coli periplasm on Ni-NTA) scFv: QTVVTQEPSLSVSPGGTVTLTCGLSSGSVSTGNYPGWYQQTQGRAPRSIIYDTNSRPSGVPDRFSGSISGNKAVLTITGAQPEDEADYYCSLYTGIAYTDVVFGGGTHLTVLGGGSSRSSSSGGGGSGGGGEVQLVQSGGDLVKPAGSLRLSCVASGFTFNSYAMSWVRQAPGKGLQWVAGINSGGSTTTYADAVKGRFTISRDNAKNTLYLQMNSLRAEDTAVYYCAKDQNSYYPSDTFEYWGQGTLVTVSSESPSPPNLTSGQAGQ	12.7	0.00396	311000
IL4 P4A-2 G11 scFv (scFv, scFv purified from E. coli periplasm on Ni-NTA) scFv: DIVMTQTPLSLSVSPGEPASISCKASQSLLYSDGNTYLYWFRQKPGQSPQRLISLVSNRDAGVPDRFSGSGSGTDFTLRISRVEADDAGVYYCGQGIQDPITFGKGTHLEIKGGSSRSSSSGGGGSGGGGEVPLVESGGDLVKPGGSLRLSCVASGFPFRSYGMNWVRQSPGGGLQWVAGILFDGSATAYADAVRGRFTISRDNAKNTLYLQMNSLRAEDTAVYYCASDDGSYIEAYNWFYYWGQGTLVTVSSASTTAPSVTSGQAGQ	8.5	0.00117	137000
IL4 P3-1 D7 scFv (scFv, scFv purified from E. coli periplasm on Ni-NTA) scFv: QSMLTQPASVSGSLGQRVAISCSGSTNNIGIFGATWYQHLPGKAPKFLLYSDGNRPSGVPDRFSGSDSGNSVTLMITALQAEDEADYYCQSFDTTLGAYVFGSGTQLTILGGGSSRSSSSGGGGSGGGGEVQLVQSGGDLVKPGGSLRLSCVASGFAFNGYDMDWVRLAPGKGLQWLSEISSSGSPTYYADAVEGRFTISRDNAKNTLYLQMDSLRAEDTAVYYCARAGEYTYGYEGYYFDYWGQGTLVTVSSASTTAPSVTSGQAGQ	17.5	0.00729	391000
IL4 P3-1 B10 scFv (scFv, scFv purified from E. coli periplasm on Ni-NTA) scFv: QSVLTQPTSVSAALGQRVTISCTGSNANIGSVYDVQWYQQLPGKSPKTIIYGNTHRPSGVPVRFSGSKSGSTATLTITGIQAEDEADYYCQSYDATLHYVFGSGTQLTVLGGGSSRSSSSGGGGSGGGGEVQLVESGGDLVKPGGSLRLSCVASGFTFSNYDMSWVRQAPGKGLQWVSTISYDGNNTYYSDAVKGRFTISRDNARNTLYLQMNSLRAEDTAVYYCAKEFDIPWDNFDYWGQGTLVTVSSASTTAPSVTSGQAGQ	4.57	0.00522	1.14e+06
IL4 P4-1 A10 scFv (scFv, scFv purified from E. coli periplasm on Ni-NTA) scFv: QSVLNQLPSVSGSLGQKVTIRCSGNTDNIGMVGAAWYRQVPGEAPKLLLYSDGNRPSGVPDRFSGSDSGRSATLTITGLQPEDEADYYCQSLDPTVPGNYLFGSGTQLTILGGGSSRSSSSGGGGSGGGGEVQLVESGGDLVKPGGSLRLSCVASGFTFSDYDMTWVRQAPGKGLQWVADINNGGSSTTYADAVKGRFTISRDNAKNTLYLQMNSLRAEDTAMYYCAKEGDNTWLSFDSWGQGTLVTVSSESPSPPNLTSGQAGQ	9.92	0.011	954000
IL4 P4-1 G3 scFv (scFv, scFv purified from E. coli periplasm on Ni-NTA) scFv: QSVLNQLPSLSMNMGETATFTCEGDNIGHKYVNWYQQKPGQAPVLTIYEDNKRPSGIPERFSGSNSGNTATLTISGARAEDEADYYCESEVSTGIVFGGGTHLTVLGGGSSRSSSSGGGGSGGGGEVQLVESGGDLVKPGGSLRLSCVASGFTFSSYDMDWVRQAPGKGLEWLSEISTNGDRTHYADAVKGRFAISRDNAKNTVYLQMNSLRAEDTAIYYCVRDGYEYLAFDYWGQGTLVTVSSASTTAPSVTSGQAGQ	3.94	0.00247	594000
IL4 P4A-1 A4 scFv (scFv, scFv purified from E. coli periplasm on Ni-NTA) scFv: SYVLSQPPSVSVTPSETAHITCGGNNIGSKYVQWIRQSAGQAPVTIIYGNTNRPTGIPERFSGANSGNTATLTISGVLAEDEADYYCQVGDTDTTVFGGGTHLTVLGGGSSRSSSSGGGGSGGGGEVQLVESGGDLVKPGGSLRLSCVASGFNFSRYSMSWVRQAPEKGLQLVAAVNSGGSRTWYADAVQGRFTVSRDNAKNTLFLEMSSLKLEDTAMYYCAKDLWSTTIAEYDYWGQGTLVTVSSASTTAPSVTSGQAGQ	52	0.0373	704000
IL4 P4A-2 D11 scFv (scFv, scFv purified from E. coli periplasm on Ni-NTA) scFv: QAVLTQPPSVSAALGQRVTISCSGSTDNVGTVGASWYQHLPGRAPKLLVYIVGDRPSGVPDRFSGSKSGTSATLTITGLQAEDEADYYCSSWDDSLRGIVFGGGTHLTVLGGGSSRSSSSGGGGSGGGGEEQLVEFGGDLVKPGESLRLSCVASGFTFNKYDMSWVRQAPGKGLQWVATVADDESFAYYTDSVKGRFTISRDNAKNTLYLQMNSLRAEDTAMYYCVGKTGSYWDIDFDLWGPGTLVTISSASTTAPSVTSGQAGQ	4.38	0.00775	1.52e+06
IL4 P4A-1 E10 scFv (scFv, scFv purified from E. coli periplasm on Ni-NTA) scFv: QSVLNQPPSVSAALGQRVTVSCTGTDTNIGSGYDVQWYQQVPGKSPTPIIYGNTNRPSGVPERFSGSKSGNTATLTITGIQAEDEADYYCQSFDDNVDGYVFGSGTQLTILGGGSSRSSSSGGGGSGGGGEVPLVESGGDLVKPGGSLRLSCVASGFTFSDYHMSWVRQAPGKGLQWVADISSSGSTYYADAVKGRFTISRDNAKNTLYLQMNSLRAEDTAVYYCARQWGEFDYWGQGTLVTVSSESPSPPNLTSGQAGQ	10.3	0.00173	194000
IL4 P3-1 A6 scFv (scFv, scFv purified from E. coli periplasm on Ni-NTA) scFv: QPVLTQPPSVSAALGQRVTISCNTNIGSPYDVQWYQQLPGKSPKTIIYGNSNRPSGVPVRFSGSKSGSTATLTIAGIQAEDEADYYCQSYDDNVDGYVFGSGTQLTVLGGGSSRSSSSGGGGSGGGGEVPLVESGGDLVKPGGSLRLSCVASGFTFHNYDLSWIRQLPGGGLQWVADIDKSGLTFYADAVKGRFTISRDNAKNTLYLQMNSLRAEDTAVYYCATWPLGSWYTETFEYWGQGTLVTVSSASTTAPSVTSGQAGQ	1.24	0.000272	219000
IL4 P3-1 C4 5LC scFv (scFv) scFv: QAVLNQPASVSGSLGQRVTISCSGSTNNIGVVGASWYQQFPGKAPKLLVYSDGDRPSGVPDRFSGSNSGYSDTLTITGLQAEDEADYYCQSFDTTLNAYVFGSGTQLTVLGGGSSRSSSSGGGGSGGGGEVPLVESGGDLVKPGGSLRISCVASGITFNNDDMGWVRQAPGKGLQWLAEISSSGTSTYYADAVKGRFTISRDNAKNTVYLQMNSLKAEDTGVYYCVGEDGYMALGFWGQGTLVTVSSASTTAPSVTSGQAGQ	4.13	0.000547	132000

Molecular target: T2, Canine IL-13 with C-terminal Avi-HIS tag (canine, biotin label when loaded on SA biosensors (Example 4); site not stated)
T2 construct: also called cIL-13; biotinylated avitag-cIL13
T2 chain: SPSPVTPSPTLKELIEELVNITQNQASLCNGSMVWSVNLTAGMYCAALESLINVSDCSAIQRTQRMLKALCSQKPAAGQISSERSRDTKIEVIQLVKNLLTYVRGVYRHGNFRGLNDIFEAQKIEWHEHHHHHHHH
Test: BLI (OCTET HTX); biotin-cIL-13 on SA biosensors, scFv in solution; 1:1 model
Protocol: as §1

Binder	Kd [nM]	koff [s⁻¹]	kon [M⁻¹ s⁻¹]
IL13 P3-05 scFv (scFv, scFv purified from E. coli periplasm on Ni-NTA) scFv: SYVLTQPPSVTVPLRQTARISCGGDNIRSKNVHWYQQKPGQAPVLIIYNDSNRPTGIPERFSGSNSGNMATLTIRGALAEDEADYYCQVWANDGYVFGSGTQLTVLGGGSSRSSSSGGGGSGGGGEVQLVESGGDSVRPGGSLRLSCVASGFTFSRYNMGWVRQAPGKGLQWVAWIYDGGSRTSYADAVKGRFTISRDNAKDTLYLQMDDLRVDDTAVYYCARDPSSWGSLFDYWGQGTLVTVSSASTTAPSVTSGQAGQ	59.7	0.00487	176000
IL13 P2-1 H5 scFv (scFv, scFv purified from E. coli periplasm on Ni-NTA) scFv: QSVLNQPPSVSAALGQRVTISCTGTNTNIGSGYSVQWYQQLPGESPKPIIYGSSNRPSGVPARFSGSKSGSTGTLTITGIQAEDEADYHCQSYDDSLDGHAVFGGGTQLTVLGGGSSRSSSSGGGGSGGGGEVQLVQSGGDLVKPGGSLRLSCVASGFTFSGYDMSWVRQSPGKGLQWVATVWSDGNTIYYADAVKGRFTISRDNAKNTVYLQMNSLRAEDTAMYYCAKSPYCTDDYCPWGDYLDLWGQGTLVTVSSASTTAPSVTSGQAGQ	9.09	0.00291	321000
IL13 P4A-2 E11 scFv (scFv, scFv purified from E. coli periplasm on Ni-NTA) scFv: QSALTQTASVSGSLGQRVTISCTGATRNVGTVGVTWYQQVPGKAPKLLLFSNGDRPSWVPDRFSGSTSGYSATLIINGVQAEDEAMYHCQSFDTMPDAHYMFGSGTQLTVLGGGSSRSSSSGGGGSGGGGELTLQESGPGLVKPSQTLSLTCVVSGASVTSTNYWNWIRQRPGRGLEWMGYWTGSTKYNPAFQGRISITADTAKNQFSLQLSSMTTEDTAVYYCARSSTWINGFDYWGQGTLVTVSSESPSPPNLTSGQAGQ	26.8	0.00466	174000
